# From PMC10011331, “Vitamin C transporter SVCT1 serves a physiological role as a urate importer: functional analyses and in vivo investigations” (Pflugers Archiv, 2023)
# Key:
# [1] = tested on: T1, O=c1[nH]c(=O)c2[nH]c(=O)[nH]c2[nH]1; experiment: cells, lysate or membranes; type: cell-based, Homo sapiens; settings: Na+ urate and vitamin C could compete for SVCT1-mediated transport
# T1 construct: full-length human SVCT1 WT, EGFP fusion (pEGFP-N1)
# [2] = tested on: T2, O=c1[nH]c(=O)c2[nH]c(=O)[nH]c2[nH]1; experiment: cells, lysate or membranes; type: cell-based, Mus musculus; settings: Na+
# T2 construct: mouse Svct1 WT, EGFP fusion
Substance,Km [1] [µM],Km [2] [µM]
SVCT1 (Homo sapiens),1511,
Svct1 (Mus musculus),,646.9
